# Source: patent publication US6946258B2, “Rapid, immunochemical process for measuring thiopurine methyltransferase” (Biologix Diagnostics, LLC, priority 2002, dated 2005)
# Numbering of substitutions follows the chain as printed.
# T1: human TPMT (Homo sapiens, UniProt P51580)
# T1 sequence (P51580 1-245): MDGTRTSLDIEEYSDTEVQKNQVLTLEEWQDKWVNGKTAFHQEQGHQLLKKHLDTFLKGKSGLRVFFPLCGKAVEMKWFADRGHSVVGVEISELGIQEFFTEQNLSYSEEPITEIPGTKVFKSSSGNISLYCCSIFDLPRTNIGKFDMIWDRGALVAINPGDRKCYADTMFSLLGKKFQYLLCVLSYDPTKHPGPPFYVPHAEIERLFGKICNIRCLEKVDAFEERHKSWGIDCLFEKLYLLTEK
# T2: hTPMT enzyme (Homo sapiens, UniProt P51580, Y240C)
# T2 construct: DNA fragment; first 13 codons of LacZ (vector-encoded leader of pGEM-3Zf(+)) (N); made in house; host or cells: E. coli JM109 (pTPMT)
# T2 sequence (P51580 1-245 Y240C): T1 sequence (P51580 1-245) with Y240C
# B1: hTPMT enzyme: Recombinant human thiopurine methyltransferase expressed in E.coli JM109 (pTPMT), partially purified (protein, UniProt P51580 1-245, looked up)
# Thiopurine S-methyltransferase: T1 sequence (P51580 1-245)
# modifications: recombinant, E. coli
# notes: Recombinant human thiopurine methyltransferase expressed in E.coli JM109 (pTPMT), partially purified
# How the values were obtained:
# human TPMT = target: T1, human TPMT; details: Deininger et al., 1994, Table 1; cited from earlier work
# hTPMT enzyme [1] = target: T2, hTPMT enzyme; experiment: ELISA immunoassay for TPMT using purified anti-6-MMP IgG; type: biochemical; details: TPMT + 100 μM SAM, 37° C., 30 minutes
# Excerpt: In order to determine whether TPMT enzyme could methylate 6-MP bound to BSA in reaction wells of a plastic ELISA plate, and if the anti-6-MMP antibody could detect the methylated 6-MMP reaction product, the following assay format was developed: [drawing 3] Schematic Representation of ELISA Assay for TPMT. Substrate BSA-6-mercaptopurine conjugate is coated onto the wells of plastic ELISA plates. In the presence of S-Adenosylmethionine (SAM), TPMT catalyses S-methylation of 6-MP to 6-methylmercaptopurine (6-MMP). Rabbit anti-6-MMP IgG binds to the covalently bound 6-MMP reaction product; and Protein A-Horseradish peroxidase (HRP) conjugate then binds to the rabbit IgG. Blue color develops in the presence of the HRP substrate, Tetramethylbenzidine. After acidification, the color changes to yellow; and the optical density at 450 nm is directly proportional to the amount of 6-MMP produced by enzyme-catalyzed TPMT methylation.
# The wells of ‘Immulon B’ ELISA strips were coated with various concentrations of BSA-6MP conjugate and blocked as described above. After blocking solution was removed, the wells received 100 μl of Methylation Reaction Mix consisting of 1 mM Potassium Phosphate, 30 mM Tris-HCl, pH 8.0, lmM EDTA, 100 μM SAM and 1-4 μl of TPMT enzyme (˜6 units/μl). As a control, the wells received 100 μl of same reaction mix except no Mtase enzyme.
# The wells were incubated at 37° C. for 30 minutes and were developed as described before. Absorbance was read on an Opsys MR ELISA plate reader (Dynex) at 450 nm. In this ELISA assay format, TPMT enzyme activity is detected as the amount of 6-MMP formed in situ: substrate 6-mercaptopurine is covalently bound to BSA which coats the wells of the plastic ELISA plate. Since anti-6-MMP IgG binds specifically to the methylated reaction product, 6-MMP, it is possible to measure TPMT activity using horseradish peroxidase (HRP) labeled Protein A (or HRP-conjugated goat anti-rabbit IgG). […]
# hTPMT enzyme [2] = target: T2, hTPMT enzyme; experiment: Temperature optimum of recombinant TPMT; type: biochemical
# Description: Thawed cells (˜15g) were sonicated in (20 mM Tris-Cl, pH 7.5, 1 mM EDTA, 50 mM KC1, 10 mM β-mercaptoethanol) and centrifuged (8000 g for 15 minutes). The supernatant was loaded onto a Q-Sepharose column (Pharmacia, Piscataway, N.J.). […] After a storage of 2 and 5 months at −20° C., no change in TPMT enzyme activity was observed.
# [3] = Storage stability of recombinant TPMT; type: physicochemical; details: storage of 2 and 5 months at −20° C.
# Description: The optimal reaction temperature for the hTPMT enzyme is 37° C. […] The relatively high activity of TPMT at ambient temperature facilitates immunoassays using anti-6-MMP antibody. After a storage of 2 and 5 months at −20° C., no change in TPMT enzyme activity was observed.
molecule,measurement,setting,value
OC[C@H]1O[C@@H](n2cnc3c(S)ncnc32)[C@H](O)[C@@H]1O [6-mercaptopurine riboside],substrate quality for human TPMT,human TPMT,relatively good substrate
BSA:6-MP: 6-MP (TPMT substrate) linked to BSA by periodate oxidation chemistry; coated onto ELISA wells,Absorbance at 450 nm,hTPMT enzyme [1]; wells coated with BSA:6-MP 10 μg/ml,2.228
same,Absorbance at 450 nm,hTPMT enzyme [1]; wells coated with BSA:6-MP 100 μg/ml,2.440
same,Absorbance at 450 nm,hTPMT enzyme [1]; wells coated with BSA:6-MP 1 mg/ml,2.561
B1,optimal reaction temperature,hTPMT enzyme [2],37 °C
same,enzyme activity at 23° C. relative to the optimum,hTPMT enzyme [2]; 23° C.,nearly as active
same,change in TPMT enzyme activity after storage,[3],no change
